Assay [1] addresses Myc-GST融合蛋白(Myc标签与谷胱甘肽融合的蛋白). The experiment in a line: ELISA on coated Myc-GST (5 μg/mL), anti-His-HRP detection, heat tolerance test at 70℃. In general terms: ELISA stands for enzyme-linked immunosorbent assay.
Assay [2] concerns the target Myc-GST融合蛋白(Myc标签与谷胱甘肽融合的蛋白). As to the kind of experiment: ELISA on coated Myc-GST (5 μg/mL), anti-His-HRP detection, heat tolerance test at 80℃.
In assay [3] the target is Myc-GST融合蛋白(Myc标签与谷胱甘肽融合的蛋白). The experiment in a line: ELISA on coated Myc-GST (5 μg/mL), anti-His-HRP detection, heat tolerance test at 90℃.

B1: 抗c-Myc标签单域重链抗体 (VHH)
VHH: QLQLVESGGGSVQPGGSLTLSCSASGFNISQYSVGWFREAPGEEREGISCLDIDGKITTFSDAIQGRFTIARDNAANMIYLHMDALNPLDTAVYRCVARWDCSRHDFITQKTATGIWGPGTQVTVSA
For B1, the OD450 was 1.5 OD450 in assay [1], 1.3 OD450 in assay [2] and 1.1 OD450 in assay [3].

For the origin of these results see patent CN106914229A.
